# Experimental data as given in US20260125725A1 (ANTHEIA, published 2026).
# B1: THS2s (N-terminally truncated splice variant of THS2, SEQ ID NO. 32) (enzyme)
# chain: MYKHGEDVKKAVPHLCVDVKIISGDPTSSGCIKEWNVNIDGKTIRSVEETTHDDETKTLRHRVFEGDVMKDFKKFDTIMVVNPKPDGNGCVVTRSIEYEKTNENSPTPFDYLQFGHQAIEDMNKYLRDSESN
# notes: Purified recombinant His6-tagged protein from E. coli; 133 amino acids; also called BetV1-1S; Bet v1-1S
# B2: THS1s (N-terminally truncated splice variant of THS1, SEQ ID NO. 81) (enzyme)
# chain: MYKHGEDVQKAVPHLCVDVKVISGDPTRSGCIKEWNVNIDGKTIRSVEETTHNDETKTLRHRVFEGDMMKDFKKFDTIMVVNPKPDGNGCVVTRSIEYEKTNENSPTPFDYLQFGHQAIEDMNKYLRDSE
# notes: Purified recombinant His6-tagged protein from E. coli; 131 amino acids
# B3: THS2 (thebaine synthesis polypeptide isoform, SEQ ID NO. 6) (enzyme)
# chain: MAPLGVSGLVGKLSTELEVDCDAEKYYNMYKHGEDVKKAVPHLCVDVKIISGDPTSSGCIKEWNVNIDGKTIRSVEETTHDDETKTLRHRVFEGDVMKDFKKFDTIMVVNPKPDGNGCVVTRSIEYEKTNENSPTPFDYLQFGHQAIEDMNKYLRDSESN
# notes: Purified recombinant protein from E. coli, made from a codon-optimized gene; 163 amino acids; also called Betv1; Betv1M
# B4: THS1 (thebaine synthesis polypeptide isoform, SEQ ID NO. 80) (enzyme)
# chain: MDSINSSIYFCAYFRELIIKLLMAPLGVSGLVGKLSTELEVDCDAEKYYNMYKHGEDVQKAVPHLCVDVKVISGDPTRSGCIKEWNVNIDGKTIRSVEETTHNDETKTLRHRVFEGDMMKDFKKFDTIMVVNPKPDGNGCVVTRSIEYEKTNENSPTPFDYLQFGHQAIEDMNKYLRDSE
# notes: Purified recombinant protein from E. coli, made from a codon-optimized gene; It carries a His6-tag; 181 amino acids; also called thebaine synthase 1
# How the values were obtained:
# [1] = target: the molecule itself; assay: cross-linking, SDS-PAGE and immunoblot (FIG. 15A)
# Method: (§1) All versions of THS1 and THS2 transcripts were codon-optimized and expressed in E. coli. Purified recombinant THS proteins were added to SalAT-coupled enzyme assays. […] Chemical cross-linking with the purified, recombinant THS proteins was performed to confirm dimerization (FIGS. 15A and 15B). Both THS1 and THS2 can form homodimers, and also display the formation of higher molecular weight oligomers at lower abundance. […] To further investigate the relative abundance of THS isoforms in the plant, protein extracts derived from whole stem, latex-free stem, and latex isolated from the T chemotype were subjected to proteomics analysis (FIG. 11C). In detected peptides with at least one amino acid substitution spectral counts for THS2 were considerably higher than for THS1, consistent with the higher abundance of THS2, compared with THS1, transcripts (FIG. 12C).
# (§2) Cross-linking experiments. Bis[sulfosuccinimidyl] suberate (BS3) was used as cross-linking reagent and prepared in PBS buffer at a concentration of 10 mM, of which 2 μL was added to 20 μL of purified recombinant protein (1 μg/μL). After incubation on ice for 1 h, 5 μL of 5×SDS (10% w/v) was added to quench the reaction. Samples were then boiled for 5 min and subjected to SDS-PAGE and immunoblot analysis.
# [2] = target: the molecule itself; assay: BS3 chemical cross-linking of purified recombinant protein, SDS-PAGE and immunoblot
# Method: as §1, §2
# [3] = target: the molecule itself; assay: size exclusion chromatography of purified recombinant THS2 (FIG. 15B)
Protein,binding result [2],other results
B1,–,binding result [1]: binds
B2,binds,–
B3,–,binding result [3]: binds
B4,binds,–
